The source of these data is patent publication US20220370632A1 (HEIDELBERG PHARMA RESEARCH, published 2022).

The target in assay [1] is T1, human CD37 on CD37-positive human cell lines (MEC-1, MEC-2, Raji, Ramos) (human, UniProt P11049 1-281).
T1 sequence: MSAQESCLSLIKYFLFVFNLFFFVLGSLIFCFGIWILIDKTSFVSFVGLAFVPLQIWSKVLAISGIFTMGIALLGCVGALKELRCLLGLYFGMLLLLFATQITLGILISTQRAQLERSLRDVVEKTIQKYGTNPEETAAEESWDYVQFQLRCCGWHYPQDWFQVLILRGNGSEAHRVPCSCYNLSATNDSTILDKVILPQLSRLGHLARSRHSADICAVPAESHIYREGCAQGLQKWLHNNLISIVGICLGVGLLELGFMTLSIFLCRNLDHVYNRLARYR
Put plainly: cell-based or functional assay.

The target of assay [2] is T1, human CD37 on CD37-positive human cell …. Put plainly: flow cytometry (FACS) on MEC-2 cells, median fluorescence against antibody concentration.
Assay [3] has the same target. Briefly: flow cytometry (FACS) on Ramos cells, median fluorescence against antibody concentration. On the technique in general: In flow cytometry, cells or beads pass a laser one at a time.

B1: chHH1-HDP-(XV) (antibody)
heavy: not shown
light: DIVMTQSHKLLSTSVGDRVSITCKASQDVSTAVDWYQQKPGQSPKLLINWASTRHTGVPDRFTGSGSGTDYTLTISSMQAEDLALYYCRQHYSTPFTFGSGTKLEIKRTVAAPSVFIFPPSDEQLKSGTASVVCLLNNFYPREAKVQWKVDNALQSGNSQESVTEQDSKDSTYSLSSTLTLSKADYEKHKVYACEVTHQGLSSPVTKSFNRGEC
modifications: amatoxin-linker moiety of formula (XV), DAR 3.36; cysteine residues carrying it not stated
With B1, in assay [1], the “EC 50 [M], cytotoxicity in vitro on MEC-2 cells” value (“EC 50 [M] … on MEC-2 cells” below) turned out to be 6.06e-08 M; the “EC 50 [M], cytotoxicity in vitro on Raji cells” value (“EC 50 [M] … on Raji cells” below) amounted to 6.1e-10 M; the “EC 50 [M], cytotoxicity in vitro on Ramos cells” value (shortened to “EC 50 [M] … on Ramos cells”) amounted to 8.5e-11 M.

B2: conjugate XXVI (antibody)
heavy: EIQLQQSGPELVKPGASVKVSCKASGYSFTDYNMYWVKQSHGKSLEWIGYIDPYNGDTTYNQKFKGKATLTVDKSSSTAFIHLNSLTSEDSAVYYCARSPYGHYAMDYWGQGTSVTVSSASTKGPSVFPLAPSSKSTSGGTAALGCLVKDYFPEPVTVSWNSGALTSGVHTFPAVLQSSGLYSLSSVVTVPSSSLGTQTYICNVNHKPSNTKVDKKVEPKSCDKTHTCPPCPAPEAAGGPSVFLFPPKPKDTLMISRTPEVTCVVVCVSHEDPEVKFNWYVDGVEVHNAKTKPREEQYNSTYRVVSVLTVLHQDWLNGKEYKCKVSNKALPAPIEKTISKAKGQPREPQVYTLPPSREEMTKNQVSLTCLVKGFYPSDIAVEWESNGQPENNYKTTPPVLDSDGSFFLYSKLTVDKSRWQQGNVFSCSVMHEALHNHYTQKSLSLSPGK
light: DIVMTQSHKLLSTSVGDRVSITCKASQDVSTAVDWYQQKPGQSPKLLINWASTRHTGVPDRFTGSGSGTDYTLTISSMQAEDLALYYCRQHYSTPFTFGSGTKLEIKRTVAAPSVFIFPPSDEQLKSGTASVVCLLNNFYPREAKVQWKVDNALQSGNSQESVTEQDSKDSTYSLSSTLTLSKADYEKHKVYACEVTHQGLSSPVTKSFNRGEC
modifications: amatoxin-linker moiety of formula (XV) on heavy chain 265Cys (EU numbering); DAR 3.15
B2: in assay [1], the “EC 50 [M] … on MEC-2 cells” value came out at 7.54e-09 M; the “EC 50 [M] … on Raji cells” value came to 2.04e-09 M; the “EC 50 [M] … on Ramos cells” value worked out at 3.2e-10 M.

B3: conjugate XXIV (antibody)
heavy: EIQLQQSGPELVKPGASVKVSCKASGYSFTDYNMYWVKQSHGKSLEWIGYIDPYNGDTTYNQKFKGKATLTVDKSSSTAFIHLNSLTSEDSAVYYCARSPYGHYAMDYWGQGTSVTVSSASTKGPSVFPLAPSSKSTSGGTAALGCLVKDYFPEPVTVSWNSGALTSGVHTFPAVLQSSGLYSLSSVVTVPSSSLGTQTYICNVNHKPSNTKVDKKVEPKSCDKTHTCPPCPAPEAAGGPSVFLFPPKPKDTLMISRTPEVTCVVVCVSHEDPEVKFNWYVDGVEVHNAKTKPREEQYNSTYRVVSVLTVLHQDWLNGKEYKCKVSNKALPAPIEKTISKAKGQPREPQVYTLPPSREEMTKNQVSLTCLVKGFYPSDIAVEWESNGQPENNYKTTPPVLDSDGSFFLYSKLTVDKSRWQQGNVFSCSVMHEALHNHYTQKSLSLSPGK
light: DIVMTQSHKLLSTSVGDRVSITCKASQDVSTAVDWYQQKPGQSPKLLINWASTRHTGVPDRFTGSGSGTDYTLTISSMQAEDLALYYCRQHYSTPFTFGSGTKLEIKRTVAAPSVFIFPPSDEQLKSGTASVVCLLNNFYPREAKVQWKVDNALQSGNSQESVTEQDSKDSTYSLSSTLTLSKADYEKHKVYACEVTHQGLSSPVTKSFNRGEC
modifications: amatoxin-linker moiety of formula (XIII) on heavy chain 265Cys (EU numbering); DAR printed as '-'
Regarding B3, in assay [1], the “EC 50 [M] … on MEC-2 cells” value stood at 1.19e-08 M; the “EC 50 [M] … on Raji cells” value came to 7.5e-10 M; the “EC 50 [M] … on Ramos cells” value was 8.6e-11 M.

B4: chHH1-HDP-D265C-(XII) (antibody)
heavy: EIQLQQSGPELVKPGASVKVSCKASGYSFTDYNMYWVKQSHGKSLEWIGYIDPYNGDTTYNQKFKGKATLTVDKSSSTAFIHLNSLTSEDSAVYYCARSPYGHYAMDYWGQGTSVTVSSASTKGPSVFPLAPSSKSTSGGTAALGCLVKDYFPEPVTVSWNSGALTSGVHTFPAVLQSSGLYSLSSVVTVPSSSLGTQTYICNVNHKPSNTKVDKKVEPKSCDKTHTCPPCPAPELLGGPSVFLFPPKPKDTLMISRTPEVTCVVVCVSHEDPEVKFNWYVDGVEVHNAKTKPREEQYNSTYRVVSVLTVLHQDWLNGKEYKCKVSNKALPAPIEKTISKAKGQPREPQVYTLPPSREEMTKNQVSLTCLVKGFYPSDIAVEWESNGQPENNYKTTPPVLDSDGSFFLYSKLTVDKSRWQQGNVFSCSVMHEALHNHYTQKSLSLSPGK
light: DIVMTQSHKLLSTSVGDRVSITCKASQDVSTAVDWYQQKPGQSPKLLINWASTRHTGVPDRFTGSGSGTDYTLTISSMQAEDLALYYCRQHYSTPFTFGSGTKLEIKRTVAAPSVFIFPPSDEQLKSGTASVVCLLNNFYPREAKVQWKVDNALQSGNSQESVTEQDSKDSTYSLSSTLTLSKADYEKHKVYACEVTHQGLSSPVTKSFNRGEC
modifications: amatoxin-linker moiety of formula (XII) on heavy chain 265Cys (EU numbering); DAR 2.03
Consider B4, for which, in assay [1], the “EC 50 [M] … on MEC-2 cells” value was 2.14e-08 M; the “EC 50 [M] … on Raji cells” value turned out to be 3.9e-09 M; the “EC 50 [M] … on Ramos cells” value is 2.2e-10 M.

B5: chHH1-HDP-(XIII) (antibody)
heavy: not shown
light: DIVMTQSHKLLSTSVGDRVSITCKASQDVSTAVDWYQQKPGQSPKLLINWASTRHTGVPDRFTGSGSGTDYTLTISSMQAEDLALYYCRQHYSTPFTFGSGTKLEIKRTVAAPSVFIFPPSDEQLKSGTASVVCLLNNFYPREAKVQWKVDNALQSGNSQESVTEQDSKDSTYSLSSTLTLSKADYEKHKVYACEVTHQGLSSPVTKSFNRGEC
modifications: amatoxin-linker moiety of formula (XIII); DAR printed as '-'; cysteine residues carrying it not stated
Turning to B5, in assay [1], the “EC 50 [M] … on MEC-2 cells” value is 5.59e-10 M; the “EC 50 [M] … on Raji cells” value is 4.8e-10 M; the “EC 50 [M] … on Ramos cells” value was 5.6e-11 M.

B6: chHH1-HDP-D265C-(XIII) (antibody)
heavy: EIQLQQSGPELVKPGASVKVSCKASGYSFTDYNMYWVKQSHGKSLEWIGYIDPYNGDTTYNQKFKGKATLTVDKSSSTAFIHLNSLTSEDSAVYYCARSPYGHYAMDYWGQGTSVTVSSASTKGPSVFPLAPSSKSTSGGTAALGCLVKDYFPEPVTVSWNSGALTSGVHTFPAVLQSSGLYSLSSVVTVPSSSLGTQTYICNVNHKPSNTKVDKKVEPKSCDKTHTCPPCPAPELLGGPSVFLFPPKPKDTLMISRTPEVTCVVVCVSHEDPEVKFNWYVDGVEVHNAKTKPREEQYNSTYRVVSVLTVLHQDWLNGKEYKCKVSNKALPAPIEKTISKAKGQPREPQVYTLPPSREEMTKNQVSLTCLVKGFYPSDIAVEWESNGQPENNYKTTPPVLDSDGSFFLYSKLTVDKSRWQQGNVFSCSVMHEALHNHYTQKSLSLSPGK
light: DIVMTQSHKLLSTSVGDRVSITCKASQDVSTAVDWYQQKPGQSPKLLINWASTRHTGVPDRFTGSGSGTDYTLTISSMQAEDLALYYCRQHYSTPFTFGSGTKLEIKRTVAAPSVFIFPPSDEQLKSGTASVVCLLNNFYPREAKVQWKVDNALQSGNSQESVTEQDSKDSTYSLSSTLTLSKADYEKHKVYACEVTHQGLSSPVTKSFNRGEC
modifications: amatoxin-linker moiety of formula (XIII) on heavy chain 265Cys (EU numbering); DAR 1.96
For the molecule B6, in assay [1], the “EC 50 [M] … on MEC-2 cells” value was 5.41e-09 M; the “EC 50 [M] … on Raji cells” value is 6.2e-10 M; the “EC 50 [M] … on Ramos cells” value is 1.1e-10 M.

B7: chHH1-HDP-LALA-D265C (antibody, human IgG1, kappa, L234A L235A)
heavy: EIQLQQSGPELVKPGASVKVSCKASGYSFTDYNMYWVKQSHGKSLEWIGYIDPYNGDTTYNQKFKGKATLTVDKSSSTAFIHLNSLTSEDSAVYYCARSPYGHYAMDYWGQGTSVTVSSASTKGPSVFPLAPSSKSTSGGTAALGCLVKDYFPEPVTVSWNSGALTSGVHTFPAVLQSSGLYSLSSVVTVPSSSLGTQTYICNVNHKPSNTKVDKKVEPKSCDKTHTCPPCPAPEAAGGPSVFLFPPKPKDTLMISRTPEVTCVVVCVSHEDPEVKFNWYVDGVEVHNAKTKPREEQYNSTYRVVSVLTVLHQDWLNGKEYKCKVSNKALPAPIEKTISKAKGQPREPQVYTLPPSREEMTKNQVSLTCLVKGFYPSDIAVEWESNGQPENNYKTTPPVLDSDGSFFLYSKLTVDKSRWQQGNVFSCSVMHEALHNHYTQKSLSLSPGK
light: DIVMTQSHKLLSTSVGDRVSITCKASQDVSTAVDWYQQKPGQSPKLLINWASTRHTGVPDRFTGSGSGTDYTLTISSMQAEDLALYYCRQHYSTPFTFGSGTKLEIKRTVAAPSVFIFPPSDEQLKSGTASVVCLLNNFYPREAKVQWKVDNALQSGNSQESVTEQDSKDSTYSLSSTLTLSKADYEKHKVYACEVTHQGLSSPVTKSFNRGEC
notes: Unconjugated chimeric antibody; Expressed in CHO or HEK293 cells; also called anti-CD37 monoclonal antibody chHH1-LALA-D265C; anti-CD37 chHH1-HDP-LALA-D265C
For B7, the “EC50 (read off the curve)” value in assay [2] is around 3 µg/mL; in assay [3], around 1 µg/mL.

B8: chHH1-HDP-D265C-(XV) (antibody)
heavy: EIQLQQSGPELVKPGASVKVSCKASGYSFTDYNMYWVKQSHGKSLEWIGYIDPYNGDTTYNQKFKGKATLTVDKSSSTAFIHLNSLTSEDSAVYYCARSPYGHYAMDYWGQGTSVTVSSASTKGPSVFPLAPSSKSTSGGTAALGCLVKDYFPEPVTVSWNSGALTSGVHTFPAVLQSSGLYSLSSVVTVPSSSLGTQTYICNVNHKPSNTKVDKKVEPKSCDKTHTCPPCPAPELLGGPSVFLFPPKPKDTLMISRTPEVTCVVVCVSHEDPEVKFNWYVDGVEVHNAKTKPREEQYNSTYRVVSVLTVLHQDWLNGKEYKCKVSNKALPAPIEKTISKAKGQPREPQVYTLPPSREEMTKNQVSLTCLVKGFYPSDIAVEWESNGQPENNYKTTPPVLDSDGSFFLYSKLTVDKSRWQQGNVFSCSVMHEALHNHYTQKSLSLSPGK
light: DIVMTQSHKLLSTSVGDRVSITCKASQDVSTAVDWYQQKPGQSPKLLINWASTRHTGVPDRFTGSGSGTDYTLTISSMQAEDLALYYCRQHYSTPFTFGSGTKLEIKRTVAAPSVFIFPPSDEQLKSGTASVVCLLNNFYPREAKVQWKVDNALQSGNSQESVTEQDSKDSTYSLSSTLTLSKADYEKHKVYACEVTHQGLSSPVTKSFNRGEC
modifications: amatoxin-linker moiety of formula (XV) on heavy chain 265Cys (EU numbering); DAR 2.80
Regarding B8, in assay [1], the “EC 50 [M] … on MEC-2 cells” value came to 1.11e-08 M; the “EC 50 [M] … on Raji cells” value amounted to 1.63e-09 M; the “EC 50 [M] … on Ramos cells” value is 4.7e-10 M.

Broadly, the EC50 (read off the curve) is the concentration that produces a half-maximal response.
